# Source: article PMC5405111 (Molecular Cell, 2017)
# T1: RRM1 subunit of ribonucleotide reductase (human (endogenous in RKO), UniProt P23921 1-792)
# T1 sequence (looked up): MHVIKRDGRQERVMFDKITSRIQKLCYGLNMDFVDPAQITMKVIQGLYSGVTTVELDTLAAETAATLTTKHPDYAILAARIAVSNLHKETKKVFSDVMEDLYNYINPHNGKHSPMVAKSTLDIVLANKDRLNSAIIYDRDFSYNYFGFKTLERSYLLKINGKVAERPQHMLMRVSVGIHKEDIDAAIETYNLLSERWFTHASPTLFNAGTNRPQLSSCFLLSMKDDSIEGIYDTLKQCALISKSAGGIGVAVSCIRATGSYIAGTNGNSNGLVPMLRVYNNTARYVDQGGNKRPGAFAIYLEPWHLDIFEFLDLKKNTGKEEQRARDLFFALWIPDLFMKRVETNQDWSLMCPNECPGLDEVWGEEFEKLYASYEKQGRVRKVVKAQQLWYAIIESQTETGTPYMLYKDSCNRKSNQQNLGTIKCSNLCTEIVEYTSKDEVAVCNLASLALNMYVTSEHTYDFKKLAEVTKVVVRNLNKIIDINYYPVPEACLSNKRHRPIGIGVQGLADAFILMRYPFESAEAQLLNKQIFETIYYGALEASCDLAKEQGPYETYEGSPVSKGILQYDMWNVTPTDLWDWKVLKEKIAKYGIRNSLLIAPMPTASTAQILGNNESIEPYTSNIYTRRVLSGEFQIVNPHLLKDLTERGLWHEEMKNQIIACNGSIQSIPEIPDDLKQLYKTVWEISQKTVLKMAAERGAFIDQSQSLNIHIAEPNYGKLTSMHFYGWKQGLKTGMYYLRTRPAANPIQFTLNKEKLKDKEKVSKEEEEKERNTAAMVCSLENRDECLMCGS
# Target: T1, RRM1 subunit of ribonucleotide reductase
# Test: co-IP
fold increase of RRM2B bound to RRM1 in <0.1% O2 against normoxia [fold],fold decrease of RRM2 bound to RRM1 in <0.1% O2 against normoxia [fold],Binder
5.3,,"RRM2B subunit of ribonucleotide reductase (natural protein, human (endogenous in RKO), UniProt Q7LG56 1-351, looked up) MGDPERPEAAGLDQDERSSSDTNESEIKSNEEPLLRKSSRRFVIFPIQYPDIWKMYKQAQASFWTAEEVDLSKDLPHWNKLKADEKYFISHILAFFAASDGIVNENLVERFSQEVQVPEARCFYGFQILIENVHSEMYSLLIDTYIRDPKKREFLFNAIETMPYVKKKADWALRWIADRKSTFGERVVAFAAVEGVFFSGSFAAIFWLKKRGLMPGLTFSNELISRDEGLHCDFACLMFQYLVNKPSEERVREIIVDAVKIEQEFLTEALPVGLIGMNCILMKQYIEFVADRLLVELGFSKVFQAENPFDFMENISLEGKTNFFEKRVSEYQRFAVMAETTDNVFTLDADF"
,1.8,"RRM2 subunit of ribonucleotide reductase (natural protein, human (endogenous in RKO), UniProt P31350 1-389, looked up) MLSLRVPLAPITDPQQLQLSPLKGLSLVDKENTPPALSGTRVLASKTARRIFQEPTEPKTKAAAPGVEDEPLLRENPRRFVIFPIEYHDIWQMYKKAEASFWTAEEVDLSKDIQHWESLKPEERYFISHVLAFFAASDGIVNENLVERFSQEVQITEARCFYGFQIAMENIHSEMYSLLIDTYIKDPKEREFLFNAIETMPCVKKKADWALRWIGDKEATYGERVVAFAAVEGIFFSGSFASIFWLKKRGLMPGLTFSNELISRDEGLHCDFACLMFKHLVHKPSEERVREIIINAVRIEQEFLTEALPVKLIGMNCTLMKQYIEFVADRLMLELGFSKVFRVENPFDFMENISLEGKTNFFEKRVGEYQRMGVMSSPTENSFTLDADF"
